Source: patent EP4138793B1, “NOVEL NON-PROTEINIC FURIN INHIBITOR” (priority 2020, dated 2021)
The star is where a group is joined. Decanoyl = CCCCCCCCCC(=O)*; CH2Cl = ClC*

Target: furine humaine recombinante (Homo sapiens, UniProt P09958)
Assay: Inhibition of furin enzyme activity (cleavage of a fluorescent substrate)
Assay type: biochemical
Conditions: reference inhibitor tested at 100 nm
Protocol: L'expérience est réalisée en utilisant une furine humaine recombinante, qui catalyse le clivage d'un substrat spécifique fluorescent.
Le décanoyl-Arg-Val-Lys-Arg-CMK à 100 nm a été utilisé comme inhibiteur de référence de l'activité de la furine.
La furine est pré-incubée pendant 10 minutes à température ambiante en l'absence (contrôle) ou en présence du produit de référence ou de concentrations croissantes du composé testé : «Amyrines purifiées de Protium heptaphyllum»; 25 ppm; 250 ppm et 1000 ppm (v / v). Le produit «Amyrines purifiées de Protium heptaphyllum» , AMY à 1000 PPM correspond à une solution 0,5% en volume du produit HTRE commercialisé par la société Ephyla.
À la fin de l'étape de pré-incubation, un substrat de furine a été ajouté et les conditions expérimentales ont été incubées à nouveau à température ambiante à l'abri de la lumière pendant 5 minutes. Toutes les expériences ont été réalisées en triplicate.
Le composé d'essai " Amyrines purifiées de Protium heptaphyllum " pré-solubilisé à 10 000 ppm dans du DMSO. La solution a ensuite été diluée dans du tampon d'essai afin d'atteindre les concentrations décrite ci-dessus.
Le clivage du substrat fluorescent de furine a été suivi pendant 5 minutes après l'addition du substrat en lisant la fluorescence à 485 nm / 535 nm.
Les résultats sont exprimés en RFU (unités fluorescentes relatives) +/- S.D. (Écart-type).

Sequence of furine humaine recombinante (P09958 108-794): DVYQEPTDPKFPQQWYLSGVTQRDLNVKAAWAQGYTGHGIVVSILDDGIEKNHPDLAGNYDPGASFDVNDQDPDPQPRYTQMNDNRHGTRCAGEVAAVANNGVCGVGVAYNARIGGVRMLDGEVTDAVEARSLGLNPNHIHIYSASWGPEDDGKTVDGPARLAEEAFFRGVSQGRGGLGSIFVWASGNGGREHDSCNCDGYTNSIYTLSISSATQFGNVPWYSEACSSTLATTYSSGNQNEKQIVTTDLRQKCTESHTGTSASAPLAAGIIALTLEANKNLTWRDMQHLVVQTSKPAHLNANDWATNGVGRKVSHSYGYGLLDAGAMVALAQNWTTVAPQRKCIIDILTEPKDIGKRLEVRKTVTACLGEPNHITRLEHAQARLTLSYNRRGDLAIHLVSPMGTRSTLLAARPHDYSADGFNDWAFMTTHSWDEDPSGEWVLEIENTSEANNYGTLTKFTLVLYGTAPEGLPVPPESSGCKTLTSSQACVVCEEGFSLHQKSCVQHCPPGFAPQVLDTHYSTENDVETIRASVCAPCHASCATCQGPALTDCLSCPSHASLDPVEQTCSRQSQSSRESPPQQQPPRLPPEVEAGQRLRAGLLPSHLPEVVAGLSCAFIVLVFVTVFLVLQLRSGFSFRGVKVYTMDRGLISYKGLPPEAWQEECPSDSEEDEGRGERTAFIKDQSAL

Decanoyl-Arg-Val-Lys-Arg-CMK (Decanoyl-RVKR-CH2Cl)
inhibition de l'activité de la furine: 97,9%
